Experimental data taken from PMC11542851 (PLOS Pathogens, 2024).
Like-named read-outs stand apart in the source and are kept apart here.

What was measured:
[1] = target: T1, SARS-CoV-2 RBD subunit (recombinant) (SARS-CoV-2 Wuhan-Hu-1, UniProt P0DTC2)
[2] = target: T1, SARS-CoV-2 RBD subunit (recombinant); test: ELISA; settings: both partners purified

| Binder | binding result [1] | binding result [2] |
| --- | --- | --- |
| C68.136 (antibody, V domains shown) VH: EVQLLESGGGLVQPGGSLRLSCAASGFTFSIYAMSWVRQAPGKGLEWVSGISGSGGSTYYADSVKGRFTLSRDNSKNTLFLQMNSLRAEDTAVYYCAKGEGSVVVVSAGVWGKGTTVTVSS VL: DIQLTQSPSSLSASVGDRITITCQASQDISKSLNWYQQKPGKAPKVLIYDASNLETGVPSRFSGSGSGTDFTFTISSLQPEDIATYYCQQYDNLRLTFGGGTKVEIK | binds | – |
| C68.180 (antibody, V domains shown) VH: EVQLVESGGGLVKPGGSLRLSCAASGFTFIDYHMSWIRQAPGKGLEWVSYITTTSSYANYADSVKGRFTISRDNAKNSLFLQMNSLRADDTAVYYCARDRGYDLRFDYWGQGTLVTVSS VL: DIQMTQSPSSLSASVGDRVTITCQASQGISNYLNWYQKKPGKAPKLLIYDASNLKTGVPSRFSGSGSGTDFTFTISSLQPEDIATYYCQQYDSLPLTFGGGTKVEIK | binds | – |
| C68.102 (antibody, V domains shown) VH: QLQLQESGPGLLKPSETLSLTCTVSGGSISSSRYYWGWIRQPPGKGLEWIGSVYYSGTTYYNPSLKSRVTISVDASKNQFSLRLSSVSAADTAVYYCARRLGAIWDWGQGTRVTVSS VL: DIQLTQSPSSLSASVGDRVTITCRASQGISNSLAWYQQKPGKAPKLLLYAASTLESGVPSRFSGSGSGTDYTLTISSLQPEDFAAYYCQQYYSTPTFGQGTKVEIK | binds | – |
| C68.256 (antibody, V domains shown) VH: QVQLQESGPGLVKPSETLSLTCSVSGGSISSSSSYWGWIRQPPGKGLEWIGNIDYSGSTYYNPSLKSRVTISVDTSKNQFSLKLSSVTAADTAVYFCARGADYGPYFDYWGQGALLTVSS VL: QSALTQPASVSGSPGQSITISCTGTSSDVGSYNLVSWYQHHPGKAPKLMIYEVSKRPSGVSNRLSGSKSGNTASLTISGLQAEDEADYYCSSYAGSSTFVVFGGGTKLTVL | binds | – |
| C68.100 (antibody, V domains shown) VH: EVQLVQSGAEVKKPGESLRISCKGSGYIFNSYWIIWVRQMPGKGLEWMGRIDPSDSYTNYSPSFQGHVTMSVDKSINTAYLQWSSLKASDTAMYYCARVRFGELSWDTFDYWGQGTLVTVSS VL: DIQVTQSPSSLSASVGDRVTITCRASQSMSYYLNWYQQKPGKAPKLLISAASSLQSGVPSRFSGSGSGTDFTLTISSLQPEDFATYYCQQSYSTPYTFGQGTKLEIK | binds | – |
| C68.175 (antibody, V domains shown) VH: EVQLLESGGGLVQPGGSLRLSCAASGFTFSSYAMSWVRQAPGKGLEWVSGISGSGGSTYYADSVKGRFTISRDNSKNTLHLQMNSLRAEDTAVYYCAKGSRWNPDYFDYWGQGTLVTVSS VL: not shown | – | binds |
| C68.170 (antibody, V domains shown) VH: QVQLQESGPGLVKPSQTLSLTCTVSGGSISSGGYYWSWIRQHPKKDLEWIGYIYNSGSTYYNPSLKSRVTISIDTTKNQFSLKLSSVTAADTALYYCARSVGAAAQWGGEFDYWGQGTLVTVSS VL: DIQLTQSPSSLSASVGDRVTITCQASQDISNYLNWYQQKPGKAPKLLIYDVFILQAGVPSRFSGSGSGTDFTFTISSLQPEDIATYYCQQYNHLITFGGGTKVEIK | binds | – |
| C68.304 (antibody, V domains shown) VH: EVQLVESGGGVVQPGRSLRLSCAASGFIFSNYDMHWVRQAPGKGLEWVAVIWYDGSNKYYADSVKGRFTISRDNSKNTLYLQMNSLRADDTAMYYCSRHDSGTYYYFDSWGQGTLVTVSS VL: LTVVTQEPSFSVSPGGTVTLTCGLSSGSVSTSYYPSWYQQTPGQPPRTLIYTTITRSSGVPDRFSGSILGNKAALTITGAQGDDESDYYCVLYMGSGNWVFGGGTKLTVL | binds | – |
| C68.121 (antibody, V domains shown) VH: EVQLVESGGGLVKPGGSLRLSCAASGFTFSDYYMTWIRQAPGKGLEWVSKITNSNSYTHYADSVKGRFTISRDNAKNSLFLHMNSLRAEDTAVYYCARAIWIGYPDDYYMDVWGKGTTVTVSS VL: SYELTQPPSVSVSPGQTARITCSGDTLPNQYVYWYQQKPGQAPVLLIYKDTERPSGIPERVSGSTSGTTVTLTISGVQAEDEADYYCQSADSSGTSFGGGTKLTVL | – | binds |
| C68.286 (antibody, V domains shown) VH: QSTLKESGPALVKPTQTLTLTCTFSGFSLSTSGMCVSWIRQPPGKALEWLARIDWDDDKYYSTSLETRLTISKDTSKNQVVLTMTNMDPVDTATYYCARMTVAGPSLDYWGQGTLVTVSS VL: not shown | binds | – |
| C68.83 (antibody, V domains shown) VH: EVQLVESGGGVVQPGRSLRLSCAASGFIFSSYGMHWVRQAPGKGLEWVAVIWYDGSNKYYADSVKGRFTISRDNSKNTLYLQMNSLRAEDTAVYYCARDDPEVGCSGGSCYYYYDMDVWGQGTTVTVSS VL: SYELTQPPSVSVSPGQTARITCSGDALPKQHAHWYQQKPGQAPVLVIYKDIERPSGIPERFSGSSSGTTVTLTISGVQAEDEADYYCQSADSSVTYVVFGGGTKLTVL | – | binds |
| C68.233 (antibody, V domains shown) VH: QVQLVQSGPEVKKPGTSVKVSCKASGFTFTTSAVQWVRQARGLRLEWIGWIVVGSGNTNYGQKFQERVTITRDMSTSTAYMELSSLRSEDTAVYYCAAPHCNRTNCHDGFDIWGQGTMVTVS VL: EIVLTQSPGTLPLSPGERATLSCRASQSVRSSYLAWYQQKPGQAPRLLIYGASSRATGIPDRFSGSGSGTDFILTISRLEPEDFAVYSCQQYGSSPWTFGQGTKVEIK | binds | – |
| C68.225 (antibody, V domains shown) VH: EVQLVQSGAEVKKPGESLRISCKGSGYSFTNYWISWVRQMPGKGLEWMGRIDPSDSYTDYSPSFQGHVTISTDKSISTAYLQWSSLKASDTAMYYCARPRGIAAVGTGYNWLDPWGQGTLVIVSS VL: DIQMTQSPSTLSASVGDRVTITCRASQSINSWLAWYQQKPGKAPKLLIYDASSLESGVPSRFSGSGSGTEFTLTISSLQPADFATYYCQQYNALYTFGQGTKLEIK | binds | – |
| C68.123 (antibody, V domains shown) VH: EVQLVESGGGLVQPGGSLRLSCSASGFTFSSYTLHWVRQAPGKGLEYVSSISSNGGSTYYADSVKGRFTISRDNSKNTLFLQMSSLRAEDTAIYYCVKGVWLHDFWSGYPSRWGQGTPVTVSS VL: DIQLTQSPSTLSASVGDRVTITCRASQSISNWLAWYQQKPGKAPNLLIYDASSLESGVPSRFSGSGSGTEFTLTISSLQPDDFATYYCQQYNSYPWTFGQGSKVDIK | binds | – |
| C68.263 (antibody, V domains shown) VH: EVQLVESGGGVVQPGRSLRLSCAASGFTFSTYAMHWVRQAPGKGLEWVAVISFDGSNTYYADSVKGRFTISRDNSKNTLYLQMNSLRAEDTAVYYCAKDSYYSDRSDYYWRSYGYFGLWGQGTLVTVSS VL: DIQLTQSPSTLSASVGDRVTITCRASQSISSWLAWYQQKPGKAPKLLIYDASSLESGVPSRFSGSGSGTEFTLTISSLQPDDLATYYCQQYRSYSGTFGQGTKVEIK | binds | – |
| C68.220 (antibody, V domains shown) VH: QVQLLQSGAEVKKPGASVKVSCKASGYTFTIYAMHLVRQAPGQRLEWMGWINTGNGDTKYSQKFQGRVTITRDTSASTAYMELSSLRSEDTAVYYCAISGSRHFQVDYFDYWGQGTLVTVSS VL: DIQMTQSPSTLSASVGDRVTITCRASQSISRWLAWYQQKPGKAPKLLIYDASSFESGVPSRFSGRGSGTEFTLTISSLQPDDFATYYCQQYKSYPWTFGQGTKVEIK | binds | – |
| C68.236 (antibody, V domains shown) VH: QVQVVQSGAELKKPGASVKVSCKAPGHTFTIYAMHWVRQAPGQRLEWMGWINAGNGDTKYSQKFQGRVTITRDTSASTAYMELSSLRSEDTAVYYCASSGSRRFQVDYFDYWGQGTLVTVSS VL: DIQLTQSPSTLSASVGDRVTITCRASQSIRSWLAWYQQKPGKAPKLLIYDASSLESGVPSRFSGSGSGTEFTLTISSLQPDDFATYYCQQYNSYPWTFGQGTKVEIK | binds | – |
| C68.194 (antibody, V domains shown) VH: QVQLVQSGAELKRPGASVKVSCKAPGHTFTIYAMHWVRQAPGQRPEWMGWINAGNGDTKYSQKFQGRVTITRDTSASTAYMELSSLRSEDTAVYYCATSGSLRFQVDYFDHWGQGTLVTVSS VL: DIQLTQSPSTLSASVGDRVTITCRASQSISSWLAWYRQKPGKAPKLLIYDASNLESGVPSRFSGSGSGTEFTLTISSLQPDDFATYYCQQYNSYPWTFGQGTKVEIK | binds | – |
| C68.138 (antibody, V domains shown) VH: EVQLVQSGAEVKKPGESLRISCKGSGYSSTNYWISWVRQMPGKGLEWMGRIDLSDSYTNYSPSFQGHVTISADKSISTAYLQWSSLKASDTAIYYCARLLTTVTTDWFDPWGQGTLVTVSS VL: DIQMTQSPSSLSASVGDRVTITCRASQSISNYLNWYQQKPGKAPKLLIYTASSLQSGVPSRFSGSGSGTDFTLSISSLKPEDFATYFCQQSYNAPPYTFGQGTKLQIK | binds | – |
| C68.279 (antibody, V domains shown) VH: EVQLVQSGAEVKKPGESLKISCKGSGYSFNYYWIGWVRQMPGKGLEWMGIIYPGDSDARYSPSFQGQVTISADKSISTAYLQWSSLKASDTAMYYCGRLVGYSHDLYFDYWGQGTLVTVSS VL: not shown | binds | – |
| C68.285 (antibody, V domains shown) VH: QVQLVQSGAEVKKPGASVKVSCKASGYTFSNYFMHWVRQAPGQGLEWMGIINPSGVSTSYAQKFQGRITMTRDTSTSTVYMELSSLRSEDTAVYYCAFEMGAAPFDYWGQGTLVTVSS VL: DIQLTQSPSFLSASVGDRVTITCRASQGISSYLAWYQQKPGKAPKVLIYDASTLQSGVPSRFSGSGSGTEFTLTISSLQPEDFATYYCQQLNTYPQGLTFGGGTKVEIK | binds | – |
| C68.281 (antibody, V domains shown) VH: QVQLVQSGAEVRKPGASVKVSCKASGYNFTSYYMHWVRQAPGQGLEWMGIINPSDGSASYAQKFQGRVTMTRDSSTSTVYMELSSLRSDDTAVYFCARGGRILQWFPYFFDYWGQGTLVTVSS VL: EIVLTQSPGTLSLSPGERATLSCRASQSVSIRYLAWYQQKPGQAPRLLIYGASSRATGIPDRFSGSGSGTDFTLTISRLEPEDFAVYYCQQYETFGQGTKVEIK | binds | – |
